The record followed here is patent US20140256614.

The subject of the series is MK2-activating peptide (transduction domain YARAAARQARA coupled to a Kaposin-derived region).

Regarding “MK2 (endogenous, in rat pulmonary endothelial cells, RPMEC)”, the “HSP27 phosphorylation in RPMEC after MK2 siRNA knock-down against control siRNA” value was “MK2 siRNA reduced the level of MK2 in the cells and blocked the activity of the MK2-activating peptide”; the “phosphorylated HSP27 by immunoblot, time course at 50 µM peptide, RPMEC” value is reported as “significant MK2 activation was observed by 15 minutes of treatment”.
